From article PMC6957213

Assays:
[1] = test system: T1, GdhR (Neisseria gonorrhoeae FA19), ORF:8165ddaf; assay: EMSA; conditions: EMSA: 12 fmol DIG-DNA in 20 uL, 20 mM Hepes pH 7.6, 1 mM EDTA, 10 mM (NH4)2SO4, 1 mM DTT, 0.2% Tween-20, 30 mM KCl, 1.25 ng/uL calf thymus DNA, 25 min, 30 C
T1 sequence: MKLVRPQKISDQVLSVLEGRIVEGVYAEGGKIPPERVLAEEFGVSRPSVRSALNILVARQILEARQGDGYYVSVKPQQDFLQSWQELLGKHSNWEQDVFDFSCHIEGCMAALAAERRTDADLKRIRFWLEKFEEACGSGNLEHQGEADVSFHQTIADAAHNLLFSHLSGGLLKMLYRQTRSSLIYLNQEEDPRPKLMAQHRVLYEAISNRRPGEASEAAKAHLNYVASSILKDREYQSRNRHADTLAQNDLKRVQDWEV

[2] = test system: T1, GdhR (Neisseria gonorrhoeae FA19), ORF:8165ddaf; assay: competition; conditions: EMSA: 12 fmol DIG-DNA in 20 uL, 20 mM Hepes pH 7.6, 1 mM EDTA, 10 mM (NH4)2SO4, 1 mM DTT, 0.2% Tween-20, 30 mM KCl, 1.25 ng/uL calf thymus DNA, 25 min, 30 C

Row | Sequence | binding [1] | binding [2]
1 | GTGGACGGGGACGGCGCGGTATTCGTGCCGCCGGAAGAATGCTGAAAATGCCGTCTGAAGCCTTTCGGGCGGCTTTTTCTACACGCCCCTTTCCCACACTCCCTCCGCCGCATCATCACCATCCTTAACCCGCATTAATAGCCATTATCGATAAAATGCTTGACCGATTACATAAGATTACGTAAAGTGTGCAAACGCATATCTTTTAACCAAAATATCGGGTGTGCGGGATTTGAACGTCTTTCCAAACCTCGACGCGCCTTATGATGC (double strand) [lctPΔFadR EMSA probe] | binds more weakly | 
2 | GTGGACGGGGACGGCGCGGTATTCGTGCCGCCGGAAGAATGCTGAAAATGCCGTCTGAAGCCTTTCGGGCGGCTTTTTCTACACGCCCCTTTCCCACACTCCCTCCGCCGCATCATCACCATCCTTAACCCGCATTAATAGCCATTATCGATAAAATGCTTGACCGATTACATAAGATTACGTAAAGTGTGCAAACGCATAATAATTGGTCTTACCAATTTATCTTTTAACCAAAATATCGGGTGTGCGGGATTTGAACGTCTTTCCAAACCTCGACGCGCCTTATGATGC (double strand) [lctP promoter, unlabeled competitor] |  | binds
3 | CGTAGGGTGCGAGCGTTAATCGGAATTACTGGGCGTAAAGCGGGCGCAGACGGTTACTTAAGCAGGATGTGAAATCCCCGGGCTCAACCCGGGAACTGCGTTCTGAACTGGGTGACTCGAGTGTGTCAGAGGGAGGTGGAATTCCACGTGTAGCAGTGAAATGCGTAGAGATGTGGAGGAATACCGATGG (double strand) [16S rRNA gene fragment] |  | no binding
